Molecular target: T1, GFP-MYO7A (mouse) (mouse, UniProt P97479 1-2215)
T1 construct: MYO7A (myosin VIIA), mouse, in pEGFP-C1; plasmid obtained from David Corey; source: HEK293, transfected, in RIPA extract; not shown: GFP, N-terminal, kept
Assay: affinity purification with mass spectrometry; HEK293 cells transfected; RIPA extract; 138-1 immunoprecipitates analysed by shotgun mass spectrometry, two technical replicates
Settings: partners not purified

T1 sequence (P97479 whole entry): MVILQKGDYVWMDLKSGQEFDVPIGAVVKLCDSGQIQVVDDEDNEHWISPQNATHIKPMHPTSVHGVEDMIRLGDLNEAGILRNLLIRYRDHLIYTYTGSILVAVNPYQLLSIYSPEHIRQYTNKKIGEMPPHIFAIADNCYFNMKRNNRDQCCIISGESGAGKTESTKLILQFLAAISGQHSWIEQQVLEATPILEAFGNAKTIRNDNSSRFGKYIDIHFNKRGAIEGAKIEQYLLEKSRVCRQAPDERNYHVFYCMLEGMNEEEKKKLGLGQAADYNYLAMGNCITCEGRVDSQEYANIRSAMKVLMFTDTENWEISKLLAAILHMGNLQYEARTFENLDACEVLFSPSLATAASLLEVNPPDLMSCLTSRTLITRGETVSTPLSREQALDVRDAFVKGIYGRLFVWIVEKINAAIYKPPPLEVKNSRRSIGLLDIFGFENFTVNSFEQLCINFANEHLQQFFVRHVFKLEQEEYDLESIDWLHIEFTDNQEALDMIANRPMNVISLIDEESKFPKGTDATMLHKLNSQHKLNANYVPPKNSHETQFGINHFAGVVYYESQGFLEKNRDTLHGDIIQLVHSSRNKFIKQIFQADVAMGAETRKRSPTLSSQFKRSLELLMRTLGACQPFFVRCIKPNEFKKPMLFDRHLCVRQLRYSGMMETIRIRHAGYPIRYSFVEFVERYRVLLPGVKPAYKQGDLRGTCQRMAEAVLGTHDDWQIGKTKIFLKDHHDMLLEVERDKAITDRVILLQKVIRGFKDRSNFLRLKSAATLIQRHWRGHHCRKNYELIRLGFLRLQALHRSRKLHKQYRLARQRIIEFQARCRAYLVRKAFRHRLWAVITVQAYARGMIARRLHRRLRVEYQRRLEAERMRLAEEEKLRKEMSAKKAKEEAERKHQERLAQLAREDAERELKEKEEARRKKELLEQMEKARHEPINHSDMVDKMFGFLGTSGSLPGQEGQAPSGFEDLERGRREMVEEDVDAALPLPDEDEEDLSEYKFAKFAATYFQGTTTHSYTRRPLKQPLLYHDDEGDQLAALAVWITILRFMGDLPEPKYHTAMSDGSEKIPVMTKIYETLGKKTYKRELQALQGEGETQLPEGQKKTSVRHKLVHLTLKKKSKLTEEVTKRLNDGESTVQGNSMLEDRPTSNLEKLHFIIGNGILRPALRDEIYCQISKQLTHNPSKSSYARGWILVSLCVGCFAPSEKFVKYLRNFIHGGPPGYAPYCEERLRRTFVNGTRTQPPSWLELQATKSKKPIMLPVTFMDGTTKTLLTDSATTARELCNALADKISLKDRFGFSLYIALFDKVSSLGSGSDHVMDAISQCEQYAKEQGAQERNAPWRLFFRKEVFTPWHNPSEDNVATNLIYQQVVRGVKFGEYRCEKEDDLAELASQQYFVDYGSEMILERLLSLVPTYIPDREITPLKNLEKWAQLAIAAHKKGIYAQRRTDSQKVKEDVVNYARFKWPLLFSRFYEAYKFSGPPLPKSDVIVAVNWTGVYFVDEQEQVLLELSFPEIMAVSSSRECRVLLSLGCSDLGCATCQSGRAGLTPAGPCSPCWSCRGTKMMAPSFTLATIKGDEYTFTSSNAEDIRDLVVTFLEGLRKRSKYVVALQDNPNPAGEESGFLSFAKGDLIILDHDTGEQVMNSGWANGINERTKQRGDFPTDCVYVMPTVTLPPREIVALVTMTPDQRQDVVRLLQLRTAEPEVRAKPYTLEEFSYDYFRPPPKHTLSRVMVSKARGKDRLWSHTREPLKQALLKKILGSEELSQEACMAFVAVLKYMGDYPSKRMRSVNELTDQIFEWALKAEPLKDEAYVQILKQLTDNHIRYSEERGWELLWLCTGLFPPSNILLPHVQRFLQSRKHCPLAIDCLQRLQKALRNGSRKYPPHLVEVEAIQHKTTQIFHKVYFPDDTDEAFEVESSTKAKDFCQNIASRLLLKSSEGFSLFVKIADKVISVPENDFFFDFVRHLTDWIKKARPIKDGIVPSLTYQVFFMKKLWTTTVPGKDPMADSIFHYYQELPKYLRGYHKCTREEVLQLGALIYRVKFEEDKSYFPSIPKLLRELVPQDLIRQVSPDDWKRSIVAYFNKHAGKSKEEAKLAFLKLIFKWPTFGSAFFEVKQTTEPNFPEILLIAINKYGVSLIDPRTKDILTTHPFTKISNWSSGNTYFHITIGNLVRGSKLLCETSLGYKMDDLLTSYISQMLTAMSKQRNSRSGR

level in the 138-1 immunoprecipitate relative to MYO7A: ~0.4 x
B1: mCherry-PDZD7 (mouse), in HEK293 (natural protein, UniProt E9Q9W7 1-1021, looked up)
chain: MARGFTVGFDPLGLGELSSGSLSSVSSRGHLGSDSGSTATRYLLRKQQRLLNGPSRGIRASSPMGRVILINSPIEANSDESDIIHAVRVEKSPSGRLGFSVRGGSEHGLGIFVSKVEEGSSAERAGLCVGDKITEVNGLSLESTTMGSAVRLLTSSSCLHMMVRRMGRVPGIKFSKEKTTWVDVVNRRLVVEKCSSTPSDRSSEDGVRRIVHLYTTSDDFCLGFNIRGGKEFGLGIYVSKVDHGGLAEENGIKVGDQVLAANGVRFDDISHSQAVEVLKGQTHIMLTIKETGRYPAYKEMVSEYCWLDRLSNGVLQQLSPASESSSSVSSYASSAPCSSGSLPSDRMDVCLGPEEPTSHGPGWGRADTAMQTEPDLDSRVETWCSVRPTVILRDTAIRSDGPSSTRHLDSALSESPKTALLLALSRPRTPITRSQSHLTLWEEKKQRKKEKSGSSGEKGALQRSKTLMNLFFKGGRQGRPAGDGHREAWTLDSRSPTKVRPRLDLEKAGSVGPVQKFVTWRLRRDRERGRALLSARSGSPSGQAPTVNEQVQAWESRRPLIQDLARRLLTDDEVLAVTRHCSRYVHEGGVEDLVRPLLAILDRPTKLLLLRDIRSVVAPTDLGRFDSMVMPVELEAFEALKSRAVGPSALRPTRQDTPPKRHLITPVPDSRGGFYLLPVNSSEDEDGEIREKLGVLKVSLGASAPHHKGIPPLQDVPVDAFSLRRGACAPPPQPPPVAPRPPRPNWLLTEPLSREDTQQNQSQTPAQSCSRSRSRSRSRSHSRGQGKSPGRRRSPSPAPIATAATANGRYHRPRKARPLLPRLLDGQVAKVGARQGPLENGRIAEEAVGNVSTGALRTITLSKMKQSLGISISGGIESKVQPMVKIEKIFPGGAAFLCGDLQAGFELVAVDGESLEQVTHQRAVDTIRRAYRNKAREPMELVVRVPGPGLLPLASDLRVVKDQSLAPDCPSALGPVDDARILTQLPPPEARQLQQSLSSALKVPQSIPKLSPILKDPHDPS
notes: PDZD7, mouse, cloned into pmCherry-C1; also called PDZD7 fused to mCherry; source: HEK293, transfected, in RIPA extract; not shown: mCherry, N-terminal, kept

Source: publication PMC5005036, “PDZD7-MYO7A complex identified in enriched stereocilia membranes” (eLife, 2016)
